Patent US20110207628A1

Key:
[1] = biological target: FLAG-tubby-F (full-length mouse tubby with N-terminal FLAG tag) (mouse) (UniProt P50586); experiment: clonal phage on immobilized FLAG-tubby-F, plaque assay
[2] = biological target: tubby-N (N-terminus of mouse tubby, 1M-242P), GST-free (mouse) (UniProt P50586); experiment: clonal phage on immobilized tubby-N, plaque assay
[3] = biological target: Axl-Fc (Axl extracellular domain fused to human IgG1 Fc fragment) (human); experiment: clonal phage on immobilized Axl-Fc, plaque assay

FLAG-tubby-F (full-length mouse tubby with N-terminal FLAG tag) (mouse), sequence (P50586 other isoform, or with tags, fused parts or gaps): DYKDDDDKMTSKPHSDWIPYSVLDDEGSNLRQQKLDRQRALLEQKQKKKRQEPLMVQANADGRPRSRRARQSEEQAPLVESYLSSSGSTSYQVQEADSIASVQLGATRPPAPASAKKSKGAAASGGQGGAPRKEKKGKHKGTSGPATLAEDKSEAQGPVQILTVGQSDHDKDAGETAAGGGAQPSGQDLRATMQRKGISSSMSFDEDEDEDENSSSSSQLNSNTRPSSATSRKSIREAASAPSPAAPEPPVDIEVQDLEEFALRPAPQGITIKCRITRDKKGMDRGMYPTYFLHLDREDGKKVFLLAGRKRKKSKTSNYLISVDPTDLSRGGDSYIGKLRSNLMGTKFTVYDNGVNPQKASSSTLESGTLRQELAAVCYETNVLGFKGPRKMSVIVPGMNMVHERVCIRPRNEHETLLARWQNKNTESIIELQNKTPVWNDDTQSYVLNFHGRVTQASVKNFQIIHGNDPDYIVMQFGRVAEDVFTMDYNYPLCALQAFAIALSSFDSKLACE
tubby-N (N-terminus of mouse tubby, 1M-242P), GST-free (mouse), sequence (P50586 1-242): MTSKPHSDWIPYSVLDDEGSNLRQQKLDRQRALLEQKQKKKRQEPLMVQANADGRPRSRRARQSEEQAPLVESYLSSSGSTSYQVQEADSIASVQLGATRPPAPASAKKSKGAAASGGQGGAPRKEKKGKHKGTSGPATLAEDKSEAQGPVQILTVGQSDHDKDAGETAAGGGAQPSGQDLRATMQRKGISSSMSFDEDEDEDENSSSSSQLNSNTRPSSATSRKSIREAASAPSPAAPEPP

Substance | Binding to tubby-F (binding specificity to FLAG-tubby-F vs. to GFP-FLAG) [1] | Binding to tubby-N (binding specificity of clonal phage vs. control phage) [2] | Binding activity (pfu ratio of clonal phage binding to immobilized Axl-Fc versus blank) [3]
Paf1/RNA polymerase II complex component (Rtf1) 69N-186K, phage clone (from UniProt A2AQ19 69-186) | 6.2 X (fold) |  | 
High mobility group box 2-like 1 (Hmgb211) 170K-305G, phage clone | 5 X (fold) | 29.8 X (fold) | 
PH180: Lectin, galactose binding, soluble 3 (Lgals3) 131Y-264I, phage clone (from UniProt P16110 131-264) |  |  | 1380 X (fold)
Unknown protein encoded by Chromosome X Genomic contig, alternate assembly (NW_001035178, 7824017-7824523 bp), phage clone | 3.1 X (fold) | 40.1 X (fold) | 
